According to US20120123096 (published 2012):

Experiments:
Experiment in all cases: ELONA
Conditions in all cases: stem-loop (predicted)
[1] = biological target: Botulinum neurotoxin type A holotoxin (BoNT A HT) (UniProt P0DPI1;P0DPI1 P0DPI1:2-448,P0DPI1:449-1296)
[2] = biological target: Botulinum neurotoxin type B light chain (UniProt B1INP5 B1INP5:2-441)
[3] = biological target: Botulinum neurotoxin type A light chain (50 kDa zinc endopeptidase) (UniProt P0DPI1 P0DPI1:2-448)
[4] = biological target: Botulinum neurotoxin type B holotoxin (BoNT B HT) (UniProt B1INP5;B1INP5 B1INP5:2-441,B1INP5:442-1291)

Measured: binding result

Botulinum neurotoxin type B holotoxin (BoNT B HT), sequence (B1INP5 2-441, chain 1 of 2): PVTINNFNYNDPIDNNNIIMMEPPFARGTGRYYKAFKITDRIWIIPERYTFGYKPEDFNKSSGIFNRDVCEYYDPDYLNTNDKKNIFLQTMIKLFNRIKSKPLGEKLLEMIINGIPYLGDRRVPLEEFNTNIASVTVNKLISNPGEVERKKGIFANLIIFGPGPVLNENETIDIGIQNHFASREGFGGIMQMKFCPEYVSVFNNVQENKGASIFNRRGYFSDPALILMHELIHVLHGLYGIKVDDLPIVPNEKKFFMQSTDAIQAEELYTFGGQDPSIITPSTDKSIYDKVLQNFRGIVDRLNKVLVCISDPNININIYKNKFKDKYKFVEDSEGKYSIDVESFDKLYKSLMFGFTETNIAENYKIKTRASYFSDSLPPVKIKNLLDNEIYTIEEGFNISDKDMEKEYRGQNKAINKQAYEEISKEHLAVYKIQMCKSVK
Botulinum neurotoxin type B holotoxin (BoNT B HT), sequence (B1INP5 442-1291, chain 2 of 2): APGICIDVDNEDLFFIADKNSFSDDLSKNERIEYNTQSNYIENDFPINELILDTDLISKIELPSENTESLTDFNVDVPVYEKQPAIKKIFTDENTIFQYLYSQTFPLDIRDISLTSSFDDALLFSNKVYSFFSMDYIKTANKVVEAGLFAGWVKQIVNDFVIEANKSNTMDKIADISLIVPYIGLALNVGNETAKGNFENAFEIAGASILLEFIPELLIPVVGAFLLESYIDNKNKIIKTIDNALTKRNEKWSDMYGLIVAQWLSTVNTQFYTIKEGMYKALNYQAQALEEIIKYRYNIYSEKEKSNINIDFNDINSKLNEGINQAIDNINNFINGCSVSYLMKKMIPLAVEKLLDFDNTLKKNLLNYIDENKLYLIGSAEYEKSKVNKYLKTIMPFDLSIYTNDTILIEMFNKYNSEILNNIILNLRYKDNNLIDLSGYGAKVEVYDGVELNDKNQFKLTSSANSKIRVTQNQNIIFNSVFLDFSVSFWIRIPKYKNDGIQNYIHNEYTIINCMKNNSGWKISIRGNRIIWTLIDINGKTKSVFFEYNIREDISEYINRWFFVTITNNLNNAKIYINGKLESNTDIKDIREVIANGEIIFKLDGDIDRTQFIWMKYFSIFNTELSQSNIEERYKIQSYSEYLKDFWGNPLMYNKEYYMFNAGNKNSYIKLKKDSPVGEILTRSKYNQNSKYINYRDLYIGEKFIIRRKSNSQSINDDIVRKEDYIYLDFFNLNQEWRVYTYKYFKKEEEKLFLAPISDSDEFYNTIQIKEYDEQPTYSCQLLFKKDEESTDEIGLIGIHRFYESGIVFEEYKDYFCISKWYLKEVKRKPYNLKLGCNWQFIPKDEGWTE
Botulinum neurotoxin type B light chain, sequence (B1INP5 2-441, one chain of several): as the sequence (B1INP5 2-441, chain 1 of 2) above
Botulinum neurotoxin type A holotoxin (BoNT A HT), sequence (P0DPI1 2-448, chain 1 of 2): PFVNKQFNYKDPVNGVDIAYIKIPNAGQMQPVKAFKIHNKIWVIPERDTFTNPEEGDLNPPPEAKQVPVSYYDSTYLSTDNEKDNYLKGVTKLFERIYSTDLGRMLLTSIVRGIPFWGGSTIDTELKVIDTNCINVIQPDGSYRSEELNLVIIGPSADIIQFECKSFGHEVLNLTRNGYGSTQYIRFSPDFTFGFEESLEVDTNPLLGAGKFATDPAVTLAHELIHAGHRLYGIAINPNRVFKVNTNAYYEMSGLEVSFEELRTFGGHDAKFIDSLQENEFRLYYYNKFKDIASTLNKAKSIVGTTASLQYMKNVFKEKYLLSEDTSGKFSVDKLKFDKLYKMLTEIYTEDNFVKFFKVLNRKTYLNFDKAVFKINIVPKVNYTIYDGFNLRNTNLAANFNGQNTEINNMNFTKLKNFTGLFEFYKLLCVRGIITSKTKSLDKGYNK
Botulinum neurotoxin type A holotoxin (BoNT A HT), sequence (P0DPI1 449-1296, chain 2 of 2): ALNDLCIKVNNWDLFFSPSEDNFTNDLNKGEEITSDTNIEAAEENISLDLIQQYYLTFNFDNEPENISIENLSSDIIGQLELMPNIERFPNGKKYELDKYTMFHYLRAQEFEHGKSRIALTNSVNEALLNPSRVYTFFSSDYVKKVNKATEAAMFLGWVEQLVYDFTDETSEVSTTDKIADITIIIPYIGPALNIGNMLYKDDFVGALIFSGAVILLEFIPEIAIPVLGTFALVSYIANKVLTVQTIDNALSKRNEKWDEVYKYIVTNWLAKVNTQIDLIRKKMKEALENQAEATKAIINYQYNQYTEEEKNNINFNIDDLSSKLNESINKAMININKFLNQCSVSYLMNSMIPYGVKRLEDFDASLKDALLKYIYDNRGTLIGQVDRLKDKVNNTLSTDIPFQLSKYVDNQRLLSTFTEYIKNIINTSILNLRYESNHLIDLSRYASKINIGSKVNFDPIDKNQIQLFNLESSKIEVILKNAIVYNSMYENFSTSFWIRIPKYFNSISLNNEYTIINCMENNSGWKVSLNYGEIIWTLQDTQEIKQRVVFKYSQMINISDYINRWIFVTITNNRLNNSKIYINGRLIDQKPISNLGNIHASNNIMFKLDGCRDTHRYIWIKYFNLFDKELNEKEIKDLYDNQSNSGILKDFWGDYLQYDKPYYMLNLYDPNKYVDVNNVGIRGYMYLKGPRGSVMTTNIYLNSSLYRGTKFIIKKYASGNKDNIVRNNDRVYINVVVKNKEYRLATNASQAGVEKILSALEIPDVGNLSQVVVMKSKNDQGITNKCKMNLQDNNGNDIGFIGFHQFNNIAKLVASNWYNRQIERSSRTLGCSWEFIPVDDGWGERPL
Botulinum neurotoxin type A light chain (50 kDa zinc endopeptidase), sequence (P0DPI1 2-448, one chain of several): as the sequence (P0DPI1 2-448, chain 1 of 2) above

B1: BoNT A/B HT aptamer (ssDNA)
DNA: CATCCGTCACACCTGCTCTGCTATCACATGCCTGCTGAAGTGGTGTTGGCTCCCGTATCA
binds: all assays above

B2: BoNT A/B LC aptamer (ssDNA)
DNA: CATCCGTCACACCTGCTCTGATCAGGGAAGACGCCAACACTGGTGTTGGCTCCCGTATCA
binds: all assays above
